Values belong to the binder of their own block, whether it stands above or below them. Ends that are not written are not given here.
Columns and labels:
[1] = target: T1, insulin-like growth factor 2 receptor (IGF2R) on human hepatic stellate cells LX-2 (human, UniProt P11717 41-2491); assay: flow cytometry, labelled dimeric peptide titrated on LX-2 cells; apparent Kd
T1 construct: Endogenous IGF2R on LX-2 cells; also called LX-2 cells; LX 2 cells
Experimental: (§1) The cells were incubated with 5 FAM labeled peptides at different concentrations for 1 h at 37° C. The labeled cells were detected by flow cytometry, and the apparent Kd value was calculated using GraphPad Prism. […] The result is consistent with the cellular uptake result depicted in FIGS. 7A-7B, 8A-8G, and 9A-9G.

[2] = target: T1, insulin-like growth factor 2 receptor …; assay: flow cytometry on LX-2 cells; apparent Kd of the dimer against that of the monomer
Experimental: as §1

[3] = target: T1, insulin-like growth factor 2 receptor …; assay: flow cytometry, 5-FAM labelled peptide titrated on LX-2 cells, 1 h at 37 C; apparent Kd
Experimental: as §1

T1 sequence (P11717 41-2491 R1619G limits assumed): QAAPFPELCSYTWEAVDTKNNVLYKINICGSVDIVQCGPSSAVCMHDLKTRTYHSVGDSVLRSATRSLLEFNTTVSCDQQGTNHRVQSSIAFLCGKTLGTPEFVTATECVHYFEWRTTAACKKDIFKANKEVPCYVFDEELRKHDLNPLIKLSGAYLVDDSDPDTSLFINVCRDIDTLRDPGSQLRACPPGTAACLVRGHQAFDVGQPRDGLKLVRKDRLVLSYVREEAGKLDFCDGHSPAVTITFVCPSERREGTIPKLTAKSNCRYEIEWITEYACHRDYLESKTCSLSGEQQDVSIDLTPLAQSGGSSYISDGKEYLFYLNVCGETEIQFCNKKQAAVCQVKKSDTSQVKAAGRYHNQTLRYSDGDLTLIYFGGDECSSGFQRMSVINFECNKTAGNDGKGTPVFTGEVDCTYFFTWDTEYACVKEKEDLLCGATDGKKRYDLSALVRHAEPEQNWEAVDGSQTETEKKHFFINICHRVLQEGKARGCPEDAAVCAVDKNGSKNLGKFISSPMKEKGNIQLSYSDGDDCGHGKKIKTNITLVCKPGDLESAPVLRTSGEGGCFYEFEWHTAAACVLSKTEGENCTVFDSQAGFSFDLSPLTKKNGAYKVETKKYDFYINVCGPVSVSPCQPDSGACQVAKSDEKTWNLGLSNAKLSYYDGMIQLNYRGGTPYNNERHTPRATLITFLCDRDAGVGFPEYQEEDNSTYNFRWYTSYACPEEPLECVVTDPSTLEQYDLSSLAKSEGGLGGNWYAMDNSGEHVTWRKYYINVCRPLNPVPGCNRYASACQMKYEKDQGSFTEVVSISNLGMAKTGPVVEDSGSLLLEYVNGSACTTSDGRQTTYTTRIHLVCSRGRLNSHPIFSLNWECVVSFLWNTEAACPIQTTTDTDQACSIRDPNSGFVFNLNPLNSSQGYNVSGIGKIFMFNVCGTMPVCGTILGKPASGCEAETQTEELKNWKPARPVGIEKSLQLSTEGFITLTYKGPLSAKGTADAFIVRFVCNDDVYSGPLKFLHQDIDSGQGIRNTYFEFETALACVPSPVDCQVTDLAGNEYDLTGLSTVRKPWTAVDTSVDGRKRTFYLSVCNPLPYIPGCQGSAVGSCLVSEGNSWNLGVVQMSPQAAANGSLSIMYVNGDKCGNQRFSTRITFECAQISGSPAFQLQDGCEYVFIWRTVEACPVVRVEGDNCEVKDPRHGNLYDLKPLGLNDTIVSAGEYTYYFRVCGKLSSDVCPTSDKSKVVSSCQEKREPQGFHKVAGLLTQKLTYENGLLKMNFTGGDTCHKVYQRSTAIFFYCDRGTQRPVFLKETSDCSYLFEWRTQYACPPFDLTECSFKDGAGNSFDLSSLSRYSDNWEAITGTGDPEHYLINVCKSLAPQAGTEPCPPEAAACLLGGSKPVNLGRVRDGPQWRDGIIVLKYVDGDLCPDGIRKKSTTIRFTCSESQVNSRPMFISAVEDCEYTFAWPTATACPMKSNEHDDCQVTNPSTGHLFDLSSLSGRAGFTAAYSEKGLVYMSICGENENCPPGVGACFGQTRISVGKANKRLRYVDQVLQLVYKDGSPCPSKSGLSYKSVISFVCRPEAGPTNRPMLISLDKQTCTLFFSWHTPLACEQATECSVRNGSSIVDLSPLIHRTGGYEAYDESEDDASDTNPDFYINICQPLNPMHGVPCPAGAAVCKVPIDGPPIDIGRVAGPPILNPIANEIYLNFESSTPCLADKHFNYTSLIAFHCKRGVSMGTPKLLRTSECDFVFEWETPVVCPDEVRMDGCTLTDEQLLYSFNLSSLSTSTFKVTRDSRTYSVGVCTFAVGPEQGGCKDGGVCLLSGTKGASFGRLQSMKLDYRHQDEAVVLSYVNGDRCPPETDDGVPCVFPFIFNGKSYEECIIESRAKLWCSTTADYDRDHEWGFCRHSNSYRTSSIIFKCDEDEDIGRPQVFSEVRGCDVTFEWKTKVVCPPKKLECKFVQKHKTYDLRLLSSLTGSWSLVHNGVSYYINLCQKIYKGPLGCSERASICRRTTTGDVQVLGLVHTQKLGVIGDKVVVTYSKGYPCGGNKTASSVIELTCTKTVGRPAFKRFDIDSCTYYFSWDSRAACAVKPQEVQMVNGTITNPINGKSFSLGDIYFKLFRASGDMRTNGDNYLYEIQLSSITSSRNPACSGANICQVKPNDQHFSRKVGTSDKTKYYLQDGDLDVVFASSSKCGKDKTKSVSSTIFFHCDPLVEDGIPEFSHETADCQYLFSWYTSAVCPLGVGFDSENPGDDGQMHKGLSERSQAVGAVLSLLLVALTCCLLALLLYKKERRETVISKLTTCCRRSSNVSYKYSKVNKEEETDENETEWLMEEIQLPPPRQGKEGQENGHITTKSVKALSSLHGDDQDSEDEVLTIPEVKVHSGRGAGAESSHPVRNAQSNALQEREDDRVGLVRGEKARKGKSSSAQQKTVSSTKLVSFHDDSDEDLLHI

- Kd [1]: 0.701 µM
- fold lower apparent Kd against monomeric peptide 431 [2]: ~9 fold
B1: dimeric peptide 431 (peptide)
peptide: VHWDFRQWWQPS
modifications: also: dimer: two copies linked via a lysine, imaging agent coupled to the linker

- Kd [3]: 6.19 µM
B2: Peptide-431 (peptide)
peptide: VHWDFRQWWQPS
modifications: also: 5-FAM label, position not given here
